The text below walks through data of US20220089698A1 (published 2022).

Sequences and labels used below:
B1: 1.32.31-1 (antibody, human IgG1, kappa)
heavy: QVQLVQSGAEVTKPGASVRVSCEASGYNIRDYFIHWWRQAPGQGLQWVGWINPKTGQPNNPRQFQGRVSLTRHASWDFDTFSFYMDLKALRSDDTAVYFCARQRTDYWDFDVWGSGTQVTVSSASTKGPSVFPLAPSSKSTSGGTAALGCLVKDYFPEPVTVSWNSGALTSGVHTFPAVLQSSGLYSLSSVVTVPSSSLGTQTYICNVNHKPSNTKVDKKVEPKSCDKTHTCPPCPAPELLAGPDVFLFPPKPKDTLMISRTPEVTCVVVDVSHEDPEVKFNWYVDGVEVHNAKTKPREEQYNSTYRVVSVLTVLHQDWLNGKEYKCKVSNKALPLPEEKTISKAKGQPREPQVYTLPPSREEMTKNQVSLTCLVKGFYPSDIAVEWESNGQPENNYKTTPPVLDSDGSFFLYSKLTVDKSRWQQGNVFSCSVLHEALHSHYTQKSLSLSPGK
light: DIQMTQSPSSLSASVGDTVTITCQANGYLNWYQQRRGKAPKLLIYDGSKLERGVPSRFSGRRWGQEYTLTISSLQPEDIATYFCQVYEFVVPGTNLDLKRTVAAPSVFIFPPSDEQLKSGTASVVCLLNNFYPREAKVQWKVDNALQSGNSQESVTEQDSKDSTYSLSSTLTLSKADYEKHKVYACEVTHQGLSSPVTKSFNRGEC
B2: 1.32.33-1 (antibody, human IgG1, kappa)
heavy: B1 heavy
light: B1 light with K49N, L98I
B3: 1.35.34-1 (antibody, human IgG1, kappa)
heavy: B1 heavy with T12K, E23K, I34M, S69T, L70M, K88S, A89R, V97T, S115Q, Q118M
light: B1 light with K49N, V91T, N95R, L98I
B4: 1.35.33-1 (antibody, human IgG1, kappa)
heavy: B1 heavy with T12K, E23K, I34M, S69T, L70M, K88S, A89R, V97T, S115Q, Q118M
light: B1 light with K49N, L98I
B5: 1.1.33-1 (antibody, human IgG1, kappa)
heavy: B1 heavy with V5L, E10A, T105S
light: B1 light with K49N, L98I
B6: 1.36.32-1 (antibody, human IgG1, kappa)
heavy: QVQLVQSGAEVKKPGASVRVSCKASGYNIRDYFMHWWRQAPGQGLQWVGWINPKTGQPNNPRQFQGRVTMTRHASWDFDTFSAYMDLSRLRSDDTATYFCARQRTDYWDFDVWGQGTMVTVSSASTKGPSVFPLAPSSKSTSGGTAALGCLVKDYFPEPVTVSWNSGALTSGVHTFPAVLQSSGLYSLSSVVTVPSSSLGTQTYICNVNHKPSNTKVDKKVEPKSCDKTHTCPPCPAPELLAGPDVFLFPPKPKDTLMISRTPEVTCVVVDVSHEDPEVKFNWYVDGVEVHNAKTKPREEQYNSTYRVVSVLTVLHQDWLNGKEYKCKVSNKALPLPEEKTISKAKGQPREPQVYTLPPSREEMTKNQVSLTCLVKGFYPSDIAVEWESNGQPENNYKTTPPVLDSDGSFFLYSKLTVDKSRWQQGNVFSCSVLHEALHSHYTQKSLSLSPGK
light: B1 light with V91T, N95R
B7: 1.34.34-1 (antibody, human IgG1, kappa)
heavy: B1 heavy with T12K, E23K, S69T
light: B1 light with K49N, V91T, N95R, L98I
B8: 1.31.34-1 (antibody, human IgG1, kappa)
heavy: B1 heavy with V97T, T105S
light: B1 light with K49N, V91T, N95R, L98I
B9: 1.31.33-1 (antibody, human IgG1, kappa)
heavy: B1 heavy with V97T, T105S
light: B1 light with K49N, L98I
B10: 1.31.32-1 (antibody, human IgG1, kappa)
heavy: B1 heavy with V97T, T105S
light: B1 light with V91T, N95R
B11: 1.33.34-1 (antibody, human IgG1, kappa)
heavy: B1 heavy with T12K, E23K, S69T, V97T, T105S
light: B1 light with K49N, V91T, N95R, L98I
B12: 1.35.32-1 (antibody, human IgG1, kappa)
heavy: B6 heavy with A83F
light: B1 light with V91T, N95R
B13: 1.32.34-1 (antibody, human IgG1, kappa)
heavy: B1 heavy
light: B1 light with K49N, V91T, N95R, L98I
B14: 1.34.31-1 (antibody, human IgG1, kappa)
heavy: B1 heavy with T12K, E23K, S69T
light: B1 light
B15: 1.33.33-1 (antibody, human IgG1, kappa)
heavy: B1 heavy with T12K, E23K, S69T, V97T, T105S
light: B1 light with K49N, L98I
B16: 1.33.32-1 (antibody, human IgG1, kappa)
heavy: B1 heavy with T12K, E23K, S69T, V97T, T105S
light: B1 light with V91T, N95R
B17: 1.1.34-1 (antibody, human IgG1, kappa)
heavy: B1 heavy with V5L, E10A, T105S
light: B1 light with K49N, V91T, N95R, L98I
B18: 1.34.32-1 (antibody, human IgG1, kappa)
heavy: B1 heavy with T12K, E23K, S69T
light: B1 light with V91T, N95R
B19: 1.34.33-1 (antibody, human IgG1, kappa)
heavy: B1 heavy with T12K, E23K, S69T
light: B1 light with K49N, L98I
B20: 1.36.34-1 (antibody, human IgG1, kappa)
heavy: B6 heavy
light: B1 light with K49N, V91T, N95R, L98I
B21: 1.35.31-1 (antibody, human IgG1, kappa)
heavy: B6 heavy with A83F
light: B1 light
B22: 1.33.31-1 (antibody, human IgG1, kappa)
heavy: B1 heavy with T12K, E23K, S69T, V97T, T105S
light: B1 light
B23: 1.32.32-1 (antibody, human IgG1, kappa)
heavy: B1 heavy
light: B1 light with V91T, N95R
B24: 1.1.32-1 (antibody, human IgG1, kappa)
heavy: B1 heavy with V5L, E10A, T105S
light: B1 light with V91T, N95R
B25: 1.1.35-1 (antibody, human IgG1, kappa, V domains shown)
VH: QVQLLQSGAAVTKPGASVRVSCEASGYNIRDYFIHWWRQAPGQGLQWVGWINPKTGQPNNPRQFQGRVSLTRHASWDFDTFSFYMDLKALRSDDTAVYFCARQRSDYWDFDVWGSGTQVTVSS
VL: DIQMTQSPSSLSASVGDRVTITCQANGYLNWYQQKPGKAPKLLIYDGSNLETGVPSRFSGSRWGQEYTLTISSLQPEDIATYFCQVYEFVGPGTNLDIKR
B26: 1.31.35-1 (antibody, human IgG1, kappa, V domains shown)
VH: B25 VH with L5V, A10E, V97T
VL: B25 VL
B27: 1.32.35-1 (antibody, human IgG1, kappa, V domains shown)
VH: B25 VH with L5V, A10E, S105T
VL: B25 VL

Residue numbers refer to the chain shown, from its start.

The target in the first experiment is HIV gp120 Bal (HIV). Description: single-point ELISA. Further: test concentration or dose not given here. In general terms: An ELISA detects its analyte on a solid surface through an enzyme-linked reagent.
Take B1: the “ELISA (A450)” value came to 0.95 A450.
Same read-out and setting: the value for B2 was 0.93 A450; that for B3 was 1 A450; that for B4 was 0.9 A450.
Turning to B5, the “ELISA (A450)” value turned out to be 0.87 A450.
The same measure, in the same setting: the figure for B6 is 0.96 A450; for B7 it is 0.89 A450.
The same measure, in the same setting: the value for B8 was 0.76 A450; that for B9 was 0.89 A450; that for B10 was 0.98 A450.
In the case of B11, the “ELISA (A450)” value is 0.95 A450.
Turning to B12, the “ELISA (A450)” value turned out to be 0.96 A450.
On the same count and under the same terms, the value for B13 was 0.81 A450.
The same measure, in the same setting: the value for B14 was 0.91 A450; that for B15 was 1.09 A450; that for B16 was 0.98 A450.
On the same count and under the same terms, the figure for B17 is 0.9 A450; for B18 it is 0.93 A450.
As to B19, the “ELISA (A450)” value was found to be 1.1 A450.
The same measure, in the same setting: the figure for B20 is 1.01 A450; for B21 it is 1.05 A450.
Take B22: the “ELISA (A450)” value was 0.92 A450.
Same read-out and setting: the figure for B23 is 0.89 A450.
Same read-out and setting: the figure for B24 is 0.93 A450; for B25 it is 0.96 A450; for B26 it is 0.9 A450.
Consider B27, for which the “ELISA (A450)” value stood at 0.89 A450.

In a further experiment the target is HIV gp120 CAAN (HIV). As to the kind of experiment: single-point ELISA. Further: test concentration or dose not given here.
For B1, the “ELISA (A450)” value amounted to 0.9 A450.
Regarding B2, the “ELISA (A450)” value was determined as 0.68 A450.
Regarding B3, the “ELISA (A450)” value came out at 0.85 A450.
Same read-out and setting: the value for B4 was 0.91 A450; that for B5 was 0.94 A450.
Still for that read-out and setting: the figure for B6 is 0.5 A450.
The same measure, in the same setting: the value for B7 was 0.88 A450.
Consider B8, for which the “ELISA (A450)” value worked out at 0.86 A450.
Same read-out and setting: the value for B9 was 0.86 A450; that for B10 was 1.04 A450.
Consider B11, for which the “ELISA (A450)” value amounted to 0.95 A450.
Still for that read-out and setting: the figure for B12 is 1.01 A450; for B13 it is 0.86 A450; for B14 it is 0.92 A450.
Still for that read-out and setting: the value for B15 was 1.06 A450; that for B16 was 1.13 A450; that for B17 was 0.96 A450.
On the same count and under the same terms, the value for B18 was 0.97 A450; that for B19 was 1.04 A450.
Consider B20, for which the “ELISA (A450)” value was 0.43 A450.
Still for that read-out and setting: the value for B21 was 0.99 A450; that for B22 was 1.18 A450; that for B23 was 0.9 A450.
On the same count and under the same terms, the figure for B24 is 1.04 A450.
Same read-out and setting: the value for B25 was 0.75 A450; that for B26 was 0.77 A450; that for B27 was 0.59 A450.
